± gives the standard deviation of the averaged measurements.
Tested on: Saccharomyces cerevisiae
Assay: protein stability index of tFT-peptide fusion (C-terminal peptide) (PSI (0-1 scale)); higher = more stable (slower turnover)
Conditions: genetic background: wild type; temperature: 30 C
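Further: PSI is a weighted mean of sequencing reads over stability bins, variants kept only with over 10 reads, mCherry proximal and sfGFP distal, peptide attached via GGGS linker.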

| Sequence | protein stability index |
| --- | --- |
| PSPFFSRPSYLS | 0.718 ± 0.026 |
| PSPHHHYTPPST | 0.681 ± 0.0073 |
| PSPHLHPPPLPP | 0.641 ± 0.0047 |
| PSPLPLSPLPFS | 0.687 ± 0.04 |
| PSPLRPSPAVPS | 0.716 ± 0.064 |
| PSPLRRSTPPCL | 0.709 ± 0.13 |
| PSPPAPPRGLLP | 0.704 ± 0.03 |
| PSPPDTDTPIPL | 0.691 ± 0.034 |
| PSPPHPPPPSPY | 0.753 ± 0.097 |
| PSPPLPRPLSPP | 0.72 ± 0.045 |
| PSPPPLGPLPAL | 0.667 ± 0.037 |
| PSPPPLPPLPPP | 0.764 ± 0.12 |
| PSPPPSSAPYPS | 0.609 ± 0.077 |
| PSPPRAPSTPLI | 0.744 ± 0.06 |
| PSPPSAKLRRTP | 0.72 ± 0.057 |
| PSPPSPPPAPPP | 0.643 ± 0.1 |
| PSPQPTRPPGPL | 0.704 ± 0.039 |
| PSPSLPSACARP | 0.701 ± 0.012 |
| PSPTPLPSPRLP | 0.676 ± 0.098 |
| PSPTRPPAYPRS | 0.672 ± 0.11 |
| PSPTTSRFAPPP | 0.53 ± 0.047 |
| PSRAPQGRADNT | 0.69 ± 0.11 |
| PSRGPGRVAPCD | 0.641 ± 0.013 |
| PSRKFYSRHFPP | 0.671 ± 0.028 |
| PSRSPPPLPAPH | 0.69 ± 0.011 |
| PSRVRPLRLVLP | 0.614 ± 0.033 |

| Sequence | protein stability index |
| --- | --- |
| PSSLATFLPWPI | 0.739 ± 0.039 |
| PSSPLLGPPPPD | 0.677 ± 0.01 |
| PSSSVICLLPPA | 0.636 ± 0.04 |
| PSSVRPFDPLLC | 0.724 ± 0.063 |
| PSTRPQYLFLPP | 0.635 ± 0.016 |
| PSVPLLPPAPLS | 0.784 ± 0.075 |
| PSVRRLPARRRT | 0.626 ± 0.066 |
| PSVSPLFSSPPP | 0.719 ± 0.012 |
| PSWPRLSFRPST | 0.689 ± 0.022 |
| PSYRVVVFSLPD | 0.758 ± 0.063 |
| PTCPAPLPPSSP | 0.699 ± 0.061 |
| PTETRRIGHHEG | 0.661 ± 0.043 |
| PTGPPPPSLGPP | 0.694 ± 0.021 |
| PTLHVGPGTPHA | 0.705 ± 0.058 |
| PTLPSRYPPPMF | 0.751 ± 0.01 |
| PTLPTLFPSSSL | 0.7448 ± 0.0045 |
| PTLSSRPPPYPR | 0.642 ± 0.048 |
| PTNPPLSQPPPQ | 0.702 ± 0.039 |
| PTPGGLIIVLGS | 0.6322 ± 0.0041 |
| PTPHLHPTSLPG | 0.724 ± 0.1 |
| PTPLCPPLAVRL | 0.691 ± 0.032 |
| PTPLPSPCPAPP | 0.703 ± 0.025 |
| PTRRVHRTPLFP | 0.778 ± 0.13 |
| PTSFPAPNLPPD | 0.669 ± 0.0045 |
| PTSVRPPRRRPR | 0.745 ± 0.089 |
| PTTQVGRRTPLA | 0.647 ± 0.029 |

| Sequence | protein stability index |
| --- | --- |
| PTVGGGLDGVGR | 0.669 ± 0.063 |
| PTWGRSDESKAM | 0.744 ± 0.0099 |
| PVASGYTMWSCV | 0.693 ± 0.015 |
| PVEAPVGLVCAK | 0.568 ± 0.011 |
| PVFPLTLPAFSS | 0.815 ± 0.018 |
| PVGWRGGYVGGR | 0.666 ± 0.092 |
| PVHFLPTPRAPL | 0.686 ± 0.039 |
| PVLGRFGSTFVV | 0.674 ± 0.059 |
| PVLGYLTRGLWL | 0.721 ± 0.015 |
| PVLMTHPYFASS | 0.725 ± 0.0083 |
| PVLPPLLPLPCL | 0.644 ± 0.044 |
| PVLRPPPPLSPP | 0.734 ± 0.021 |
| PVNQRPDGGNQD | 0.764 ± 0.016 |
| PVPERTSAEPPG | 0.618 ± 0.038 |
| PVPLSALPPLPP | 0.746 ± 0.034 |
| PVPMVPTYPPSP | 0.736 ± 0.044 |
| PVPPFDGLVPAL | 0.728 ± 0.089 |
| PVPPPPPPPPPL | 0.667 ± 0.0059 |
| PVRCSDLDLTFL | 0.774 ± 0.054 |
| PVRDGFSLCFVL | 0.761 ± 0.14 |
| PVRIQTFLFCVP | 0.595 ± 0.012 |
| PVRRAHPPPPRP | 0.674 ± 0.014 |
| PVRVRGRGGCGG | 0.684 ± 0.11 |
| PVSCLGNQACYV | 0.628 ± 0.073 |
| PVSLPPSLRRPS | 0.736 ± 0.034 |
| PVTRRDVDLPPP | 0.706 ± 0.039 |

| Sequence | protein stability index |
| --- | --- |
| PVTTYPPQRHIA | 0.593 ± 0.03 |
| PVVTGGFHIVGF | 0.793 ± 0.078 |
| PWPGSWALFCFI | 0.719 ± 0.15 |
| PWPPRPPPPPSL | 0.694 ± 0.048 |
| PWRPRMAGVDYR | 0.867 ± 0.13 |
| PWTSSTTSRFPS | 0.727 ± 0.033 |
| PYHVPTPRATNR | 0.659 ± 0.026 |
| PYTHDRTTSPVF | 0.762 ± 0.12 |
| PYWVPSKSSLSP | 0.742 ± 0.068 |
| QAGALTTIPTFA | 0.616 ± 0.019 |
| QAYGFEDISFSI | 0.808 ± 0.076 |
| QCYNGSSGVSNL | 0.676 ± 0.028 |
| QDSETYSNEAGL | 0.669 ± 0.031 |
| QFFVVLVSHEGR | 0.63 ± 0.011 |
| QFRCAIFRLSFV | 0.613 ± 0.023 |
| QFTFPPGTSAPV | 0.66 ± 0.032 |
| QGGGGGGVCGMV | 0.721 ± 0.011 |
| QGLSFVSVSPRP | 0.795 ± 0.029 |
| QGPPPTPASHGP | 0.672 ± 0.026 |
| QGRPPADRATAV | 0.755 ± 0.029 |
| QGSAGRHVRTNL | 0.701 ± 0.06 |
| QIISSVFEATSY | 0.606 ± 0.037 |
| QKAQLISQVNTG | 0.6682 ± 0.0065 |

From the supplement of paper PMC10724198
